Measured values published in the Immune Epitope Database (IEDB).

What was measured:
HLA-B*51:01 [1] = assay: IEDB peptide-MHC binding, purified MHC/competitive/fluorescence; filed as Kd, often an IC50 or EC50 that approximates it; ≥ and ≤ were set here for values at or beyond the usual limits of such assays
HLA-A*68:02 = assay: IEDB peptide-MHC binding, purified MHC/competitive/radioactivity; filed as Kd, often an IC50 or EC50 that approximates it; ≥ and ≤ were set here for values at or beyond the usual limits of such assays
HLA-B*58:01 = assay: IEDB peptide-MHC binding, purified MHC/direct/fluorescence; filed as Kd, often an IC50 or EC50 that approximates it; ≥ and ≤ were set here for values at or beyond the usual limits of such assays; details: source organism: Yersinia pestis
HLA-B*40:01 [2] = assay: as above; details: source organism: Yersinia pestis
HLA-A*31:01 = assay: as above; details: source organism: Yersinia pestis
HLA-A*11:01 = assay: as above; details: source organism: Yersinia pestis
HLA-A*69:01 = assay: as above; details: source organism: Yersinia pestis
HLA-B*15:01 [3] = assay: as above; details: source organism: Yersinia pestis
HLA-A*24:03 = assay: as above
HLA-A*26:01 = assay: as above; details: source organism: Yersinia pestis
HLA-B*08:01 [4] = assay: as above; details: source organism: Yersinia pestis
HLA-B*07:02 [5] = assay: as above; details: source organism: Yersinia pestis
HLA-A*01:01 = assay: as above; details: source organism: Yersinia pestis
HLA-A*02:01 [6] = assay: as above; details: source organism: Yersinia pestis
HLA-A*03:01 = assay: as above; details: source organism: Yersinia pestis
HLA-B*27:05 = assay: as above; details: source organism: Yersinia pestis
HLA-A*24:02 = assay: IEDB peptide-MHC binding, purified MHC/competitive/fluorescence; ≥ and ≤ were set here for values at or beyond the usual limits of such assays
HLA-B*51:01 [7] = assay: IEDB peptide-MHC binding, purified MHC/competitive/radioactivity; filed as Kd, often an IC50 or EC50 that approximates it; ≥ and ≤ were set here for values at or beyond the usual limits of such assays
HLA-B*40:01 [8] = assay: as above
HLA-B*44:02 = assay: as above
HLA-B*44:03 = assay: as above
HLA-B*08:01 [9] = assay: as above; details: source organism: Dengue virus 1 Brazil/97-11/1997
HLA-B*53:01 = assay: as above
HLA-A*02:01 [10] = assay: IEDB peptide-MHC binding, purified MHC/competitive/fluorescence; ≥ and ≤ were set here for values at or beyond the usual limits of such assays; details: source organism: Zaire ebolavirus
HLA-B*07:02 [11] = assay: IEDB peptide-MHC binding, purified MHC/competitive/radioactivity; filed as Kd, often an IC50 or EC50 that approximates it; ≥ and ≤ were set here for values at or beyond the usual limits of such assays
HLA-A*02:03 = assay: as above; details: source organism: Dengue virus 1 Brazil/97-11/1997
HLA-A*02:06 = assay: as above
HLA-B*15:01 [12] = assay: IEDB peptide-MHC binding, purified MHC/competitive/fluorescence; filed as Kd, often an IC50 or EC50 that approximates it; ≥ and ≤ were set here for values at or beyond the usual limits of such assays; details: source organism: Human immunodeficiency virus 1
[13] = source organism: Dengue virus 2 Jamaica/1409/1983
[14] = source organism: Dengue virus 1 Brazil/97-11/1997
[15] = source organism: Dengue virus 3 Martinique/1243/1999
[16] = source organism: Dengue virus 4 Philippines/H241/1956
[17] = source organism: Vaccinia virus WR
[18] = source organism: Zaire ebolavirus

LSYGPAFIV
Kd (HLA-B*51:01 [1]; source organism: Entamoeba histolytica HM-1:IMSS): ≥ 20000 nM

LTAIANQATV
Kd (HLA-A*68:02; [13]): 18.8 nM

LTDEDKQNQ
Kd (HLA-B*58:01): ≥ 20000 nM
Kd (HLA-B*40:01 [2]): ≥ 20000 nM
Kd (HLA-A*31:01): ≥ 20000 nM
Kd (HLA-A*11:01): ≥ 20000 nM
Kd (HLA-A*69:01): ≥ 20000 nM
Kd (HLA-B*15:01 [3]): ≥ 20000 nM
Kd (HLA-A*24:03; source organism: Yersinia pestis): ≥ 20000 nM
Kd (HLA-A*26:01): ≥ 20000 nM
Kd (HLA-B*08:01 [4]): ≥ 20000 nM
Kd (HLA-B*07:02 [5]): ≥ 20000 nM
Kd (HLA-A*01:01): ≥ 20000 nM
Kd (HLA-A*02:01 [6]): ≥ 20000 nM
Kd (HLA-A*03:01): ≥ 20000 nM
Kd (HLA-B*27:05): ≥ 20000 nM

LTVAANEMGL
Kd (HLA-A*68:02; [14]): 198 nM

LWFNYLFGG
IC50 (HLA-A*24:02; source organism: Variola virus): 57800 nM

MAEIPLQWI
Kd (HLA-B*51:01 [7]; [15]): 3430 nM

MEFIDGISLG
Kd (HLA-B*40:01 [8]; [16]): 137 nM

MEGVFHTMW
Kd (HLA-B*44:02; [16]): 17.4 nM
Kd (HLA-B*44:03; [16]): 2.58 nM

MPIRYQTTA
Kd (HLA-B*51:01 [7]; [14]): 1690 nM
Kd (HLA-B*08:01 [9]): 201 nM

MQYVPAWIV
Kd (HLA-B*51:01 [1]; source organism: Bacillus cereus 95/8201): ≥ 20000 nM

MTATPPGSV
Kd (HLA-A*68:02; [14]): 6.2 nM

NELNYVLWE
Kd (HLA-B*44:03; [16]): 159 nM

NTPEGIIPA
Kd (HLA-A*68:02; [14]): 9.22 nM

NTSMAMTCI
Kd (HLA-A*68:02; [16]): 238 nM

PKRSVMLIG
IC50 (HLA-A*24:02; [17]): 38400 nM

PPVNDLKYSW
Kd (HLA-B*53:01; [16]): 96.8 nM

PSATKRWGF
IC50 (HLA-A*24:02; source organism: Sudan ebolavirus): 10200 nM

PWTKISETK
IC50 (HLA-A*24:02; [17]): ≥ 169000 nM

QESADSFLL
IC50 (HLA-A*24:02; [18]): ≥ 138000 nM

QKIWMAPSL
IC50 (HLA-A*24:02; [18]): ≥ 92400 nM
IC50 (HLA-A*02:01 [10]): 14500 nM

QPMELKYSW
Kd (HLA-B*53:01; [15]): 7.76 nM

QVFGAIYGA
Kd (HLA-A*68:02; [13]): 1.97 nM

RFLVINRLG
IC50 (HLA-A*24:02; [17]): 16400 nM

RSRWSRKMLM
Kd (HLA-B*07:02 [11]; [14]): 154 nM

RYGWSGAVF
Kd (HLA-A*24:03; source organism: Shigella sonnei Ss046): ≤ 1 nM

SECPNERRAW
Kd (HLA-B*44:02; [16]): 74.7 nM
Kd (HLA-B*44:03; [16]): 56.5 nM

SEFQIYKKS
Kd (HLA-B*44:03; [13]): 825 nM

SLIEVKTCLW
Kd (HLA-B*44:03; [16]): 2330 nM

SLIKYKKTLL
Kd (HLA-A*68:02; source organism: Homo sapiens): 649 nM

SPGKFWNTTI
Kd (HLA-B*07:02 [11]; [14]): 5.6 nM

SPGTSGSPII
Kd (HLA-B*07:02 [11]; source organism: Dengue virus 2 16681-PDK53): 132 nM

SPGYVLGVF
Kd (HLA-B*07:02 [11]; source organism: Dengue virus 4 Dominica/814669/1981): 8.71 nM

TAIANQATV
Kd (HLA-A*68:02; [13]): 10 nM

TAYGVLFSGV
Kd (HLA-A*68:02; [14]): 5.16 nM
Kd (HLA-A*02:03): 16.1 nM
Kd (HLA-A*02:06; [14]): 1.54 nM

TEAKQPATL
Kd (HLA-B*40:01 [8]; [13]): 18.6 nM

TEEIAVQNW
Kd (HLA-B*44:02; [13]): 15.4 nM
Kd (HLA-B*44:03; [13]): 36.8 nM

TEIASLPTYL
Kd (HLA-B*40:01 [8]; [16]): 15 nM
Kd (HLA-B*44:02; [16]): 34.7 nM
Kd (HLA-B*44:03; [16]): 222 nM

TIAVSMANI
Kd (HLA-A*68:02; [13]): 34.2 nM

TQGYFPDWQNY
Kd (HLA-B*15:01 [12]): 84.6 nM

TTGKLIWKV
IC50 (HLA-A*24:02; [18]): 62700 nM
IC50 (HLA-A*02:01 [10]): 1240 nM

VPFCSHHFHE
Kd (HLA-B*51:01 [7]; [15]): ≥ 66600 nM

VVIFILLMLV
Kd (HLA-A*68:02; [15]): 767 nM
Kd (HLA-A*02:06; [15]): 971 nM

YVQLESRFT
IC50 (HLA-A*24:02; [18]): ≥ 203000 nM
IC50 (HLA-A*02:01 [10]): 39300 nM
